# According to patent US20180051072A1 (RPEPTIDE, published 2018):
# Experiments:
# Aβ(1-40) [1] = target: T1, Aβ(1-40) (human); assay: ELISA; reacts best with peptide that has not crossed through the isoelectric point
# T1 construct: Peptide as coated on ELISA plates; its state of aggregation is not specified; also called Aβ-1-40 peptide; Beta-Amyloid 1-40
# Aβ(1-40) [2] = target: T1, Aβ(1-40); assay: ELISA, peptide coated on plate
# [3] = target: T2, Beta-Amyloid 1-40 monomer (human); assay: western blot, 7E7 as primary antibody (FIG. 20)
# T2 construct: also called Beta-Amyloid Monomer; Aβ monomer (1-40)
# T2 sequence (peptide, as listed by the source): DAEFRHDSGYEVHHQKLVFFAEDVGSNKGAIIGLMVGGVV
# Protocol: (§1) Western blots were performed to determine the extent of 7E7 binding to human Beta-Amyloid, specifically to determine if the antibody binds to Aβ aggregates, Aβ monomer, or both. This procedure applies to any Aβ peptide or peptide fragment which is composed of up to and including 40 or 42 amino acids. Before beginning the assay the vials of Aβ to be used were treated with 1,1,1,3,3,3-Hexafluoro-2-propanol (Aldrich Chemistry #105228-100G) (also known as HFIP) at a rate of 150 μL HFIP per 0.5 mg peptide). Once the HFIP was added to the lyophilized pellet the vials were sonicated for exactly one minute, or until the solution was clear. Once the dissolved peptide had taken on a clear appearance, the HFIP was gently evaporated out of each vial by passing Argon gas directly into the vial with the rubber stopper open just enough to allow the gasses and fumes to escape. When the inside of the vials was free of any remaining liquid, the remaining peptide is dissolved with 1% Ammonium Hydroxide at a rate which yields a peptide concentration of 1 mg/mL. 10 μL of this solution was mixed with 90μL of Milli-Q water, and from that 100 μL mixture 20 μL was added to 50 μL XT Sample Buffer (Bio-Rad #161-0791) and 130μL Milli-Q water for a final sample volume of 200 μL. No 2-Mercaptoethanol was added, and the samples were not heated. […] Instead the mixture was gently mixed by using a pipette. […]
# [4] = target: T3, Beta-Amyloid 1-42 monomer (human); assay: western blot, 7E7 as primary antibody (FIG. 20)
# T3 construct: also called Beta-Amyloid Monomer; Aβ monomer (1-42)
# T3 sequence (peptide, as listed by the source): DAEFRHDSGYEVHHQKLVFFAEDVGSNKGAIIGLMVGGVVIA
# Protocol: as §1
# Aβ(1-42) = target: T4, Aβ(1-42) (human); assay: ELISA, varying peptide amounts, 7E7 at 1:1,000 (FIG. 11)
# T4 construct: its state of aggregation is not specified; also called Beta-Amyloid 1-42; Aβ42
binding result (Aβ(1-40) [1]),binding result (Aβ(1-40) [2]),binding result [3],binding result [4],binding result (Aβ(1-42)),Binder
binds,–,–,–,–,"monoclonal antibody 6C2 (antibody, V domains shown, Hybridoma monoclonal antibody; also called mAb 6C2; Beta Amyloid 6C2) VH: EVQLQQSGPELVKPGASVKISCKASGYSFTGYFLSWVKQSHGRSLEWIGRINPYNGHTFYNQKFKDKATLTVDKSSTTAHMELLSLTSEDSAVYYCAGSDSWGQGTTLTVSS VL: not shown"
–,binds,binds,binds,binds,"monoclonal antibody 7E7 (antibody, V domains shown, Hybridoma monoclonal antibody raised against 1-42 rubredoxin fusion, detected with goat anti-mouse IgG (H+L); also called mAb 7E7; Beta Amyloid 7E7) VH: EVKLVESGGGLVQPGSSQRLSCATSGFTFTDYYMSWVRQPPGKALEWLGFIRNKTKRYTTEYSASVKGRFTISRDNSQSILYLQMNTLRAEDSATYYCARDDPYARFAYWGQGTLVTVSA VL: DVVMTQTPLSLPVSLGDQASISCRSGQSLVHRNGNTYLHWYLQKPGQSPKLLIYKVSNRFSGVPDRFSGSGTGTDFTLKISRVEAEDLGVYFCSQSTHVPFTFGSGTKLEIK"
